The record followed here is patent US10921309 (dated 2021).

Assay [1] has as its target T1, OBn(GGS)2t-FhuA (barnase nanopore sensor) (Bacillus amyloliquefaciens / E. coli).
T1 chain: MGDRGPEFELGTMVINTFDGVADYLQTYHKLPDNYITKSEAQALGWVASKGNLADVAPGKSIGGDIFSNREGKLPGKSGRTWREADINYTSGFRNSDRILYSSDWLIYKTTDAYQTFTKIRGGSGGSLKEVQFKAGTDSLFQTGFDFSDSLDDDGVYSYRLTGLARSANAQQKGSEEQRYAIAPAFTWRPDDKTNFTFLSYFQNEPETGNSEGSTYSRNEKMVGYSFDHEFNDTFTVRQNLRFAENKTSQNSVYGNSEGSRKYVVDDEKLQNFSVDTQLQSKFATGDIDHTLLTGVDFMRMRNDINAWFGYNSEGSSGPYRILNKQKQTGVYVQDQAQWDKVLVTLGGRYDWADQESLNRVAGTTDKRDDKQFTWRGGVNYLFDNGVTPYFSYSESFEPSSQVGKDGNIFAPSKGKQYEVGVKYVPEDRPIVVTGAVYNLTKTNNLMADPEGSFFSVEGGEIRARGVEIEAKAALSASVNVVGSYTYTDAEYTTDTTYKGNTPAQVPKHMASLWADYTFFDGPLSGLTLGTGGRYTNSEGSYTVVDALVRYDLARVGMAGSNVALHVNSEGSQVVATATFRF
As to the kind of experiment: other, single-molecule nanopore, high Bs concentration.

Assay [2] addresses T1, OBn(GGS)2t-FhuA (barnase nanopore …). Kind of assay: other, single-molecule nanopore, 300 mM KCl, pH 8.
Assay [3] shares this target. Kind of assay: other, single-molecule nanopore.

B1: Barstar (Bs) (protein)
chain: MKKAVINGEQIRSISDLHQTLKKELALPEYYGENLDALWDALTGWVEYPLVLEWRQFEQSKQLTENGAESVLQVFREAKAEGADITIILS
On to B1, for which the values for the Kd in assay [1], in assay [2] and in assay [3] were 82 nM, 64 nM and 61 nM, respectively.
